Results published in US5976875A, “Diacylglycerol kinase isoforms epsilon and zeta and methods of use thereof” (priority 1997, dated 1999).
Where two headings read alike, the source gives them in different places. One block for each molecule: values may come before it.

Columns and labels:
[1] = biological target: protein kinase M (PKM), catalytic fragment of mixed rat brain PKC isozymes; experiment: Inhibition of PKM phosphorylation of histone IIIS; format: biochemical; details: histone IIIS as substrate, 10 minute reaction; read-out: half-maximal inhibition of PKM
Description: When the inhibitory effects of the DGK A/S peptide were assayed, histone IIIS (final concentration 20 μg/ml or as specified) was used as a substrate for PKM (1:80 dilution of frozen stock) in the reaction mixture described above. The reaction was linear for at least 40 minutes at 30° C.; 10 and 15 minute time points were chosen to evaluate inhibitory effects of the peptide. The peptide was added to the reaction mixture for 10 min at 30° C. in a shaking water bath before the reactions were started by the addition of Mg/ATP; samples were assayed using filter papers (P81, Whatman) and trichloroacetic acid precipitation.

[2] = system: protein kinase M (PKM), catalytic fragment of mixed rat brain PKC isozymes; experiment: Phosphorylation of peptides by PKM (kinetics); format: biochemical; details: for Km: FIG. 15C
Description: Phosphorylation of peptides and proteins--Peptides were phosphorylated by the purified catalytic fragment of mixed rat brain PKC isozymes (protein kinase M; PKM). In all cases involving kinetic measurements, the peptides were phosphorylated by PKM (1:120 dilution of frozen stock solution) at 30° C. All reactions were performed in the linear range of peptide phosphorylation, in an assay mixture containing 40 mM Hepes (pH 7.4), 0.25 mM EGTA, 12.5 mM MgCl2, 75 μM y-[^32 P]ATP, and various concentrations of peptides. In the peptide experiments, the reactions were stopped after 10 minutes by the addition of 1/5 vol of 5×SDS sample buffer, boiled for 5 minutes and then subjected to electrophoresis on 20% acrylamide gels. After the gels were dried, the phosphorylated peptides were localized by autoradiography, excised from the gel, and subjected to Cerenkov scintillation counting.

[3] = system: protein kinase M (PKM), catalytic fragment of mixed rat brain PKC isozymes; details: comparison values for MARCKS and MRP synthetic peptides; read-out: S0.5 for phosphorylation by PKM; cited from earlier work
[4] = biological target: T1, DGK.zeta.-2 (Homo sapiens, UniProt Q13574); experiment: DGK activity assay, homogenates of DGK.zeta.-2-transfected COS-7 cells; format: biochemical
T1 construct: the DGK.zeta.-2 cDNA was subcloned into an expression vector and transfected into COS-7 cells; expressed in transfected cells; host or cells: COS-7
Description: DAG Kinase Assay--Cell homogenates were sonicated twice with 5 watts for 5 at 4° C. The protein concentration of each cell homogenate was measured following trichloracetic acid precipitation utilizing the BCA protein assay reagent (Pierce). Each assay contained 50 mM MOPS, pH 7.2, 100 mM NaCl, 20 mM MgCl2, 1 mM EGTA, 1 mM dithiothreitol, 2 mM 1,2-dieleoyl-an-glycerol, 3.5 mM phosphatidylserine, 75 mM octyl-β-glucopyranoside, 500 μM [γ^32 ]ATP, and 0-20 μg of cell homogenate in a volume of 200 μl. For substrate specificity experiments, various diacylglycerol species were substituted for 1,2-dioleoyl-an-glycerol. The reactions were initiated by the addition of ATP (20-30 μCi/μmol), were incubated for 10 min. At 24° C., and were terminated by the addition of 200 μl of 1% perchloric acid. […] Fifty μl of each sample were counted directly by liquid acintillation spectrometry, and the remainder was applied to a 20×20 cm Silica 60A thin layer chromatography plate (Whatman). […] The region containing phosphatidic acid (as indicated by radiolabeled standards) and the remaining areas of each lane were scraped separately, and the radioactivity was estimated by liquid scintillation spectrometry. The amount of phosphatidic acid formed per reaction was calculated as [2(direct count)(PA cpm)(total lane cpm)]×[mole ATP/cpm]. […]

[5] = biological target: human diacylglycerol kinase ζ (DGKζ) (human)
[6] = biological target: DGK peptide, 18 amino acid peptide corresponding to residues 256-273 of DGKζ (human)
[7] = biological target: DGK A/S peptide, the DGK peptide with an alanine substituted for the serine at residue 10 (human)
[8] = biological target: protein kinase M (PKM), purified catalytic fragment of mixed rat brain PKC isozymes (rat)

T1 sequence (Q13574 1-1117 isoform Q13574-1 Q21R/L159V/L166C/L167C): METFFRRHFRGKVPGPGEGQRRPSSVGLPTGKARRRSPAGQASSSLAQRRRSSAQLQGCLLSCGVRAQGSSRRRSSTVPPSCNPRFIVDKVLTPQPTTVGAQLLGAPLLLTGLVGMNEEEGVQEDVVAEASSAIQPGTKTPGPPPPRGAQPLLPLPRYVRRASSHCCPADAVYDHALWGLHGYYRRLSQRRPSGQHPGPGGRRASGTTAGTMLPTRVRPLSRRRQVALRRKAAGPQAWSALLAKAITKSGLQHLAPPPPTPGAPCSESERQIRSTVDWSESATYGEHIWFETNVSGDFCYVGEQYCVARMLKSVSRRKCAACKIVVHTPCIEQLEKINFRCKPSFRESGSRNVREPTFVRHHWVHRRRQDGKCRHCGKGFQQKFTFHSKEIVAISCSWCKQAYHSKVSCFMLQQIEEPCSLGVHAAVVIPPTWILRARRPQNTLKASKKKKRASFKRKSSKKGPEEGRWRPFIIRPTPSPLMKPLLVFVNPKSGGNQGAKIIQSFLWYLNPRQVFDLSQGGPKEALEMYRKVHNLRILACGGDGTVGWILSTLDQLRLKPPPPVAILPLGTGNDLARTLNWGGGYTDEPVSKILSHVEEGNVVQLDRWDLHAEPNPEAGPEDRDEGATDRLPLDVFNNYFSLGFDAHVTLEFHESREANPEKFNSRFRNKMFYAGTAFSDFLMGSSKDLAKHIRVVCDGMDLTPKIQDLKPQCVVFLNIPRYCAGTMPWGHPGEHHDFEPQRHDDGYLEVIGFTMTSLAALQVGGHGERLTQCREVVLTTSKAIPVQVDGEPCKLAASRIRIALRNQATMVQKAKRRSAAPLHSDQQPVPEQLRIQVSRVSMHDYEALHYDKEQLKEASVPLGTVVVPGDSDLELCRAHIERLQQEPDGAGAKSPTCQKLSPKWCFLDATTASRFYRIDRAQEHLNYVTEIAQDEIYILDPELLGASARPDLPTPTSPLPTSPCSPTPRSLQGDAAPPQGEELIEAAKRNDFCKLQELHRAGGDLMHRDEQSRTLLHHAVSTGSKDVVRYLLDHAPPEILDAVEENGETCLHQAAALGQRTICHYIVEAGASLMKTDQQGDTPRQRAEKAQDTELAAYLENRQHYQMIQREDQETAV

IC50 [1]: ~800 nM
rate of phosphorylation relative to native peptide ([2]; 0.2 mM peptide, identical conditions): approximately 1/6
Km ([2]; read-out: Km of possible second, still lower affinity site): > 800 µM
Km ([2]; initial portion of the rectangular hyperbola, read-out: Km as substrate for PKM): ~50 µM
Molecule: DGK(A/S) peptide: same peptide with an alanine substituted for the serine at residue 10 (SEQ ID NO: 16) (KASKKKKRAAFKRKSSKK)

Molecule: MARCKS: MARCKS synthetic peptide phosphorylated by PKM (KASKKKKRASFKRKSSKK)
Km [3]: 0.02 µM

DGK activity ([4]; 1,2-dicapryl-sn-glycerol substrate, typical experiment, FIG. 21): 6.8 nmol/mg/min
Molecule: DGK.zeta.-2: alternatively spliced muscle form of DGK.zeta., 1,117 amino acid protein (SEQ ID NO: 6)
DAG kinase activity relative to vector alone ([4]; transfected COS-7 homogenates): more than 50 fold

nuclear localization of DGKζ by subcellular fractionation and immunoblotting [5]: > 50%
Molecule: human protein kinase C γ (PKCγ) (from UniProt P05129) (enzyme)

Km of phosphorylation of the peptide by PKM [6]: 0.5 µM
Km of a possible second phosphorylation site [7]: > 800 µM
Km of phosphorylation of the peptide by PKM [7]: 50 µM
Molecule: protein kinase M (PKM), purified catalytic fragment of mixed rat brain PKC isozymes (pool or library)

half-maximal inhibition of PKM phosphorylation of histone IIIS [8]: 800 nM
Molecule: KASKKKKRAAFKRKSSKK [DGK A/S peptide, the DGK peptide with an alanine substituted for the serine at residue 10]
